Experimental findings from publication PMC9674701, “Cancer cell survival depends on collagen uptake into tumor-associated stroma” (Nature Communications, 2022) are described below.

This test deals with FITC-labeled bovine type I Collagen (Chondrex 4001) (bovine, UniProt P02453 162-1217; P02465 80-1117, FITC label (FITC-Col labeled at a 1:1 molar ratio); labelled residues not stated | FITC label (FITC-Col labeled at a 1:1 molar ratio); labelled residues not stated). The experiment in a line: cell-based or functional assay.
Sequence of FITC-labeled bovine type I Collagen (Chondrex 4001) (P02453 162-1217, chain 1 of 2): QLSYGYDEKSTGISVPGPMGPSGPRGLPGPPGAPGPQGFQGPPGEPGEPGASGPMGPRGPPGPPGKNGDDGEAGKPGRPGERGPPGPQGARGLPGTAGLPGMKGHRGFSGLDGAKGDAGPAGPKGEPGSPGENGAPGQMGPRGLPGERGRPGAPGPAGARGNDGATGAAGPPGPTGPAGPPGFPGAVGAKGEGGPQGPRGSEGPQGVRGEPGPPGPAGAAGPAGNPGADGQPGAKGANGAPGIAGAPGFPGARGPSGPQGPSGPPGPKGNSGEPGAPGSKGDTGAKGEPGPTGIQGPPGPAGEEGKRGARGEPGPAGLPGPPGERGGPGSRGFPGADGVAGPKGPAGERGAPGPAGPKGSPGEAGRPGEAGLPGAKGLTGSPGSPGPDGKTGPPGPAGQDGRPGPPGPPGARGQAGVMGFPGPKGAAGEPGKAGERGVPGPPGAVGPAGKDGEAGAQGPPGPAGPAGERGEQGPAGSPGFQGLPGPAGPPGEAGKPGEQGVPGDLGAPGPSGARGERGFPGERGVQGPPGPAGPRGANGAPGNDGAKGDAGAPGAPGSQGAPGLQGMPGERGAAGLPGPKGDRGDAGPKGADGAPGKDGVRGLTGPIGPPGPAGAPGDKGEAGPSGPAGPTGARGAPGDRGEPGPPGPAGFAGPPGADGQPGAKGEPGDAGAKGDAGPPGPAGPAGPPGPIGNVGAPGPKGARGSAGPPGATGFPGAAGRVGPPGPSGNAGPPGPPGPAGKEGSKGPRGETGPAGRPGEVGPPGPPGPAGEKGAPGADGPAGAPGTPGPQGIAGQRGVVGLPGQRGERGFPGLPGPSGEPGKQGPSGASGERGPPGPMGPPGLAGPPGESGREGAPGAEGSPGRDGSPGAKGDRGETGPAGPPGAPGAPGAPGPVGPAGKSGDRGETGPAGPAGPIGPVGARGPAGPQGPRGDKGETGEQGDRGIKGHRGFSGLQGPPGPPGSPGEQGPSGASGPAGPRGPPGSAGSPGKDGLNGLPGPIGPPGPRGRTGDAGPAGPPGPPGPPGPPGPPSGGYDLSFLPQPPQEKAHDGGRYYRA
Sequence of FITC-labeled bovine type I Collagen (Chondrex 4001) (P02465 80-1117, chain 2 of 2): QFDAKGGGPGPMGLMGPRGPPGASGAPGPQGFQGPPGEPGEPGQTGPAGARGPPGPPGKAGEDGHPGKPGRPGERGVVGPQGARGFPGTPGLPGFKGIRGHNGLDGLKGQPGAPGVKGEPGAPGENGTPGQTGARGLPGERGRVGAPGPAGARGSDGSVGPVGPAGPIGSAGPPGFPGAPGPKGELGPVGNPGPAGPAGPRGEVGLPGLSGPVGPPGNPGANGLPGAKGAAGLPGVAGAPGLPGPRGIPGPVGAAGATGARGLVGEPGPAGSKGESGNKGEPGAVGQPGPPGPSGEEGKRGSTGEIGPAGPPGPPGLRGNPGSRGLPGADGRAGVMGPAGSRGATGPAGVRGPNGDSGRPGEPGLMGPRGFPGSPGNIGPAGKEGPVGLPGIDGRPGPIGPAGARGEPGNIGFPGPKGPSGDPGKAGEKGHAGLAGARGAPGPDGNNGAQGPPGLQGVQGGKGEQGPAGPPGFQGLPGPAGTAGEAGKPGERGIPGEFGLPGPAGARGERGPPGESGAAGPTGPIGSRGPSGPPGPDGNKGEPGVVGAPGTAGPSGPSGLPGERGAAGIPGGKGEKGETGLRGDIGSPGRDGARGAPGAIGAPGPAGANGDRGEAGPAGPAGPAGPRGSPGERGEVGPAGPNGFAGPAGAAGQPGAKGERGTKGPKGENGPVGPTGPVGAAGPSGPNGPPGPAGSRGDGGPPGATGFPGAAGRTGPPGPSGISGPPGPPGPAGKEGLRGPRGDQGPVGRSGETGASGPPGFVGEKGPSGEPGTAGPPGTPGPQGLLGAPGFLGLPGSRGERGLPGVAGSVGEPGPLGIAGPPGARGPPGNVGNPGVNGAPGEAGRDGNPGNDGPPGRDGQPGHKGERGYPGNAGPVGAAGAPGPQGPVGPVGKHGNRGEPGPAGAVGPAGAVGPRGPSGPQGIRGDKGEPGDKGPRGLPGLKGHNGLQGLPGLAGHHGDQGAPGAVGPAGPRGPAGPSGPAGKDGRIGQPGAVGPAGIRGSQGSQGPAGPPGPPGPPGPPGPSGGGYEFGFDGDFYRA

B1: TEM8 on TEM8 overexpressing CHO cells (CHO-TEM8), wild type (receptor)
chain: not shown
On to B1, for which the “FITC-col internalization assay, flow cytometry of FITC-col trapped inside cells (Fig. 4e)” value was 5 fold and the “soluble FITC released into the culture supernatant from a FITC-Col gel, 48 h (Fig. 4d)” value was approximately 3 fold.
